Measurements taken from patent US20100203559A1.
Substitutions are numbered along the chain they refer to.

Assays:
[1] = target: SNAP-25134-197 peptide (human); test: SPR (BIAcore 3000), peptide amine-coupled to CM5, antibody as analyte, 1:1 fit; first of two runs
[2] = target: SNAP-25134-197 peptide (human); test: SPR (BIAcore 3000), peptide amine-coupled to CM5, antibody as analyte, 1:1 fit; second of two runs, other chip
[3] = target: SNAP-25134-197 peptide (human); test: SPR (BIAcore 3000), peptide amine-coupled to CM5, antibody as analyte, 1:1 fit
[4] = target: SNAP-25134-197 peptide (human); test: SPR (BIAcore 3000); by Table 9 the KD of 1D3B8 is the lower one

B1: α-SNAP-25 monoclonal antibody 2E2A6 (antibody, V domains shown)
VH: QVQLQQSDAELVKPGASVKISCRASGYTFTDHSIHWVKQQPGQGLEWIGYIFPGNGNIEYNDKFKGKATLTADKSSGTAYMQLNSLTSEDSAVYFCKRMGYWGQGTSVTVSS
VL: DVLMTQTPLTLSVTIGQPASISCKSSQSLLYTNGKTYLTWLFQRPGQSPKRLIYLVSELDSGVPDRFSGSGSGTDFTLEITRVEAEDLGVYYCLQSAHFPFTFGSGTKLEIKR
What does the source list for B1?
Kd [1]: 0.09 nM; koff [1]: 0.000153 s⁻¹; kon [1]: 1.7e+06 M⁻¹ s⁻¹; Kd [2]: 0.405 nM; koff [2]: 6.74e-05 s⁻¹; kon [2]: 166000 M⁻¹ s⁻¹

B2: α-SNAP-25 monoclonal antibody 3C1A5 (antibody, V domains shown)
VH: QVKLQESGAELVKPGASVKISCKASGYTFTDHSIHWVKQKPGQGLEWIGYLFPGNGNFEYNEKFKGKATLTADKSSSTVYMYLNSLTSEDSAVYFCKRMGYWGQGTTVTVSS
VL: B1 VL with L3V, Y31N, F42I, K50Q, E58K, E79K, T81S, A97S
Which results are given for B2?
Kd [3]: 1.33 nM; koff [3]: 0.000288 s⁻¹; kon [3]: 217000 M⁻¹ s⁻¹

B3: α-SNAP-25 monoclonal antibody 1D3B8 (antibody, V domains shown)
VH: QVKLQESGAELVKPGASVKISCKASGYIFTDHALHWVRQKPEQGLEWIGYIFPGNGNIEYNEKFKGKATLTADKSSSTAYMQLNSLTSGDSAMYFCKKMDYWGQGTTVTVSS
VL: DVLMTQTPLSLPVSLGDQASISCRSSQSIVHSNGNTYLEWYLQKPGQSPKLLIYKVSNRFSGVPDRFSGSGSGTDFTLKISRVEAEDLGVYYCFQGSHVPPTFGAGTKLELKR
With B3 as the binder, how does the Kd [3] read?
The Kd was 0.05 nM.

And the koff [3]?
The koff was 5.78e-05 s⁻¹.

And the kon [3]?
The kon was 1.06e+06 M⁻¹ s⁻¹.

And the fold difference of the equilibrium disassociation constant against MC-6050 and MC-6053 [4]?
Its fold difference of the equilibrium disassociation constant against MC-6050 and MC-6053 is 10 fold.

B4: α-SNAP-25 monoclonal antibody 2C9B10 (antibody, V domains shown)
VH: B2 VH with V79A, Y82H, R98K, G100D
VL: DIQMTQSPASLSASVGETVTITCRTTENIYSYFVWSQQRQGKSPQLRVYNAKSLAEGVPSSFNVSVSGTQFSLKINSLQPEDFGTYHCQHHYGTPYTFGGGTRLEIRR
For B4, which Kd [3] is on record?
The Kd was 27.1 nM.

What about the koff [3] of the same binder?
The koff was 0.000311 s⁻¹.

And the kon [3]?
Its kon is 11500 M⁻¹ s⁻¹.
